One molecule from US10240180B2, “Multiplexed screening of enzyme activities using nanostructure-initiator mass spectrometry” (The Regents of the University of California, priority 2011, dated 2019) can be followed below.

Common to all, as to type: biochemical
The nature of data set [1]: Multiplexed β-glucosidase/β-xylosidase assay with known enzymes, cellobiose substrate. The following applies: equal amounts CB-F17 and XB-F17 (0.1 mM each), 1 h. An excerpt: (§1) It can be difficult to discriminate between several products in simultaneous reactions using conventional spectroscopic methods since these reactions typically yield the same outputs and there are only a few unique absorption or emission patterns that can be resolved separately. In contrast, mass spectrometry can resolve thousands of ions and therefore we have discovered that it is well-suited for the parallel detection of large numbers of reaction products where the substrates and occurring products differ in mass. This is the case, for example, when using pentose and hexose-based substrates at the same time. The hydrolysis of polysaccharides with identical masses (e.g. cellobiose and maltose) can even be analyzed in the same run by using different chemical structures in the linker or perfluorinated tags of varying length. Thus, potentially dozens of enzymatic conversions can be tested simultaneously using this method. Here both β-glucosidase and β-xylosidase activities were detected simultaneously utilizing a substrate cocktail comprised of equal amounts of CB-F17 and XB-F17. In the non-enzyme control only signals for cellobiose and xylobiose were detectable (FIG. 5a). […]
(§2) In each case 0.5-1 μL per quenched reaction sample was spotted onto the NIMS surface and removed after an incubation of ˜30 s. […] Enzyme activities were determined by forming product-to-substrate ratios.

Data set [2] is described as follows: Multiplexed β-glucosidase/β-xylosidase assay with known enzymes, xylobiose substrate. To be noted: equal amounts CB-F17 and XB-F17 (0.1 mM each), 1 h.
From the text: as §1, §2

A short description of data set [3]: Separate analysis of β-xylosidase activity (NIMS). The following applies: XB-F17 substrate, 1 h. As to the method:
The separate characterization of β-glucosidase and β-xylosidase activity was carried out in reaction volumes of 20-50 μL, by mixing 0.1 mM cellobiose with 8 μg of NS50010 in 50 mM sodium acetate buffer (pH 4.8), or 0.1 mM xylobiose with 0.13 μg (in […]) or 0.33 μg (in 50 μL) of 1,4-β-D-xylosidase in 50 mM potassium phosphate buffer (pH 7.5) with 1 mg/mL BSA. For the competition studies with cellobiose, samples additionally contained 10, 25, or 50 mM of unlabeled cellobiose (Sigma-Aldrich; St. Louis, Mo.). Other buffers used for the determination of the pH optima were McIlvaine's citrate/phosphate buffer (pH 2.6 and 6.0), 50 mM Tris buffer (pH 9.0) for NS50010, and 50 mM potassium phosphate buffer (pH 6.0), 50 mM Tris buffer (pH 9.0), 50 mM sodium borate buffer (pH 11.0), all with 1 mg/mL BSA for the β-xylosidase. Samples were incubated for 1 h at 35° C. (β-xylosidase) or 50° C. […]
In FIG. 4a, the determined temperature optima for the used enzymes were 50-60° C. for β-glucosidase (black) and 35° C. for β-xylosidase (gray). In FIG. 4b, the determined pH optima were around pH 4.8 for β-glucosidase (black) and around pH 7.5 for β-xylosidase (gray). […]
as §2

B1: β-xylosidase: 1,4-β-D-xylosidase from Bacillus pumilus purchased from Megazyme (protein, UniProt P07129 1-535, looked up)
Beta-xylosidase: MKITNPVLKGFNPDPSICRAGEDYYMAVSTFEWFPGVQIYHSKDLIHWRLAARPLQKTSQLDMKGNPDSGGVWAPCLSYADGQFWLIYSDIKVVDGPFKDGHNYLVTADAVDGEWSDPVRLNSSGFDPSLFHDPSGKKYVLNMLWDHREKHHSFAGIALQEYSVSEKKLVGERKVIFKGTPIKLTEAPHLYYINDVYYLLTAEGGTRYEHAATIARSSRIDGPYEVHPDNPILTAFHAPSHPLQKCGHASIVQTHTNEWYLAHLTGRPIHSSKESIFQQRGWCPLGRETAIQKLEWKDGWPYVVGGKEGLLEVEAPAMSVKEFSPTYHIVDEFKDSSLNRHFQTLRIPFTDQIGSVTENPHHLRLYGQESLTSKFTQAFVARRWQSFYFEAETAVSFFPKNFQQAAGLVNYYNTENWTALQVTYDDALGRILELSVCENLAFSQPLIKKIIIPDEIPYVYLKVTVQRETYTYSYSFDQQEWEKIDVPLESTHLSDDFIRGGGFFTGAFVGMQCQDTSGERLPADFKYFRYEETTE
In the case of B1, the “cleavage of cellobiose (CB-F17) in substrate cocktail” value in data set [1] is reported as “no enzymatic cleavage of cellobiose”. Moreover, the “cleavage of xylobiose (XB-F17) in substrate cocktail” value in data set [2] is reported as “conversion of xylobiose to xylose”. This molecule registered a temperature optimum in data set [3] of 35 °C. The same molecule yielded a pH optimum in data set [3] (35° C.) of approximately 7.5 pH.
